Laboratory results taken from the supplement of paper PMC12042874.
± gives the uncertainty stated by the source.

experiment: amyloid nucleation score (Sup35N fusion, yeast selection) (log enrichment); library NNK1; higher = more nucleation; inactive = no reads after selection
Summary of the method: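 After 24 hours of induction with 100 μM copper sulfate, psi-negative yeast expressing peptides of 20 random codons fused to Sup35N were grown for 7 days at 30°C on medium lacking adenine and uracil. Input and output plasmid inserts were sequenced with Illumina, and sequences with under 100 input reads were discarded. Scores for nucleation are the DiMSum log enrichment of output over input reads, centred on the mode score of non-aggregating sequences.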

Row | Substance | amyloid nucleation score
1 | GNFLFCTVDRHLTGSCS | 0.589 ± 0.47
2 | GNGVLAVTVSFAGTSLSLRF | -0.047 ± 1.4
3 | GNLGI | -0.31 ± 0.59
4 | GNLLVMVGNMRSIDKC | 0.326 ± 0.3
5 | GNNFFIIVAVLTQKNSAVRV | 1.19 ± 0.22
6 | GNNGVEKPKNHISGELFGTN | -0.138 ± 0.35
7 | GNRSSS | inactive
8 | GNTVQLGRAGRFHVYDLRGV | -0.357 ± 0.6
9 | GPCGTLSI | -0.541 ± 0.84
10 | GPIRDKSELAYMLPFEVMYT | 0.565 ± 0.67
11 | GPLFYNTM | 0.159 ± 1.2
12 | GPLKPFNASLVGTGAVLHGE | 0.034 ± 0.52
13 | GPLSKGIFDRFMDPHRYFKY | -0.024 ± 0.61
14 | GPPLWADNKVVLIR | -0.878 ± 0.94
15 | GQDDYLWRRSGLDHNHSSSS | -0.568 ± 0.37
16 | GQGALDYF | inactive
17 | GQGALRVDCLVHRQVVSVVL | 0.176 ± 0.62
18 | GQKYHINVRERLNNLFGDCV | 0.537 ± 0.35
19 | GQSKLVLHFAILTVVAWPFD | 0.385 ± 0.51
20 | GRAWCFY | 0.15 ± 0.33
21 | GRFRLVMVFCAGNGNAGGER | 1.52 ± 0.52
22 | GRIVVTSQFMMIGRWGSPPP | 3.29 ± 0.1

Row | Substance | amyloid nucleation score
23 | GRLCCRPVWYTISCKLWVNE | 1.04 ± 0.49
24 | GRLSYIIRSYSLIRV | -1.21 ± 0.5
25 | GRLVVIAYQMQSCDSTMD | -0.115 ± 0.42
26 | GRMEGTGNYMVYKDQEGVNG | inactive
27 | GRMGVSSWAGSQRVLIGENL | 1.47 ± 0.3
28 | GRRTAI | -0.069 ± 0.66
29 | GRSFGQSGRISRAGNVGIIC | -0.266 ± 0.38
30 | GRTSCLKRGISKEASLTGS | 1.25 ± 0.53
31 | GRTYDDYGHVIYRSWLPSLH | -0.274 ± 1.4
32 | GRVLYKSCALNNFSIMQVLC | 4.61 ± 0.1
33 | GRYVSSWFWFRFMQVQANTN | 0.248 ± 0.31
34 | GSFFTKDSDTP | 0.373 ± 0.46
35 | GSGSYRGTRLECLCFW | 0.025 ± 1.1
36 | GSKTRAKLSLGCPKFLDAKG | 0.457 ± 0.73
37 | GSLFWEVMKVMADGMCDVSL | 0.59 ± 0.54
38 | GSNIVSEYERLGRIMSV | -0.509 ± 1.2
39 | GSWYHDRVSLCFFIFDCG | 4.82 ± 0.076
40 | GTATLSHTCKHTPLRDTRLV | -0.16 ± 0.32
41 | GTDPGY | -0.706 ± 0.6
42 | GTDVQEWLAYCCAIIYAF | 0.332 ± 0.72
43 | GTDYVEGCCSLNFRCCCVNG | 5.117 ± 0.05
44 | GTGLSENRLSKYCWALLWSY | inactive

Row | Substance | amyloid nucleation score
45 | GTIVEWAT | inactive
46 | GTLPLKDKGPYRDL | -1.08 ± 1.4
47 | GTLRHDVMRQLTFLCYFINL | 0.047 ± 0.72
48 | GTMKWALYSDYLSSTFTIYH | 0.137 ± 0.26
49 | GTNYYSSGML | 0.114 ± 0.35
50 | GTQMVLFDY | 1.12 ± 0.58
51 | GTSRPVDWGLRRLS | 1.37 ± 0.62
52 | GTTDIFFLLILFFQVVN | 1.14 ± 0.73
53 | GVDKASYPHSFGEQWLSLSL | 0.844 ± 0.97
54 | GVKLYDFVNRCCVMNLLAVK | 0.428 ± 0.47
55 | GVMPNCKKNLHEPALERFNT | -0.413 ± 0.61
56 | GVNFFGCHCVHN | -0.113 ± 0.41
57 | GVQAVNVEVVNEVCLVKEAT | -0.153 ± 0.46
58 | GVRGVSKMECKYQKFIGLTG | 1.78 ± 0.61
59 | GVRVCSMPFAALLAFLLYFS | -1.09 ± 0.76
60 | GVSMGKESMIV | -0.671 ± 0.72
61 | GVSMNSFLICDFDIWQIKTR | -0.162 ± 0.22
62 | GVTVKGASS | -0.734 ± 0.66
63 | GVTWLSEISV | 0.885 ± 0.73
64 | GVWYCYLGVN | -0.431 ± 1.4
65 | GWHTQVMVVTSVSMLGVWT | 0.487 ± 0.24
66 | GWLLYDSPSRFTYC | -0.531 ± 0.37

Row | Substance | amyloid nucleation score
67 | GWSNNCAFNLQFGISKKN | 1.54 ± 0.47
68 | GWTLPNRRLWHFFMTIT | 0.654 ± 0.45
69 | GYFIVALRFSSLVEVNATSC | 0.658 ± 0.77
70 | GYGLSAL | 1.08 ± 0.73
71 | GYLIYSWVLVNWNSGLEINK | 2.62 ± 0.17
72 | GYMCIVLIRG | 1.12 ± 0.71
73 | GYMFPVFSMIGFLNTNVWSK | 3.27 ± 0.15
74 | GYRGLYY | 1.38 ± 0.6
75 | GYRTLLS | 0.372 ± 1.4
76 | GYVDGSRGRGAPNGAMCRCF | 0.205 ± 0.76
77 | HARIS | -0.313 ± 0.79
78 | HCAYRFASENEMKGG | 0.321 ± 0.65
79 | HCLAGNLDLAMVRVRSPTCL | 0.032 ± 0.59
80 | HCSFSWGYRWLGWTTKSGNM | 1.31 ± 0.4
81 | HCVLRFCNPG | inactive
82 | HCVRI | 1.4 ± 0.6
83 | HDFPIR | inactive
84 | HDSLMRSGSFNTSVTVEY | 0.843 ± 0.55
85 | HEGGQWLRKLTGPLGLRFMR | 0.216 ± 0.48
86 | HERDIQSSIGDWNKLSKPCN | -0.418 ± 0.31
87 | HFCHFVGLNPVQKRRVVPWG | inactive
